Assay results as given in patent US20240252614A1 (Pfizer, published 2024).

Assays:
hMPV100 = target: T1, hMPV100 (hMPV B, UniProt Q6WB98 19-102); assay: BLI, 53C stress
T1 construct: T411C-Q434C
Procedure: (§1) All measurements were conducted at 30° C. temperature in 96-well black plates (Corning, Corning, NY) with a final volume of 240 μL per well at a constant agitation rate of 1000 RPM.
(§2) Conformation integrity of hMPV B F protein mutants were evaluated by a thermal stress experiment. Crude cell culture supernatants were normalized based on the results of the titer quantitation and then incubated for 1 hour at room temperature and two higher temperatures. For the testing of hMPV B single mutants, the two temperatures were 53° C. and 56° C. After the incubation, the protein mutants were probed with prefusion specific monoclonal antibody hMPV-2 by OCTET HTX. Anti-Human IgG Fc Capture (AHC) biosensors were first equilibrated in PB before being dipped into more PB for to establish the initial baseline. Biosensors were incubated with hMPV-2 before being equilibrated in PB to establish the experimental baseline. The mAb-bound biosensors were then dipped into the thermal stresses cell culture supernatants for 5 minutes.

hMPV101 = target: T2, hMPV101 (hMPV B, UniProt Q6WB98 19-102); assay: BLI, 53C stress
T2 construct: A140C-S149C
Procedure: as §1, §2

hMPV102 = target: T3, hMPV102 (hMPV B, UniProt Q6WB98 19-102); assay: BLI, 53C stress
T3 construct: L141C-A161C
Procedure: as §1, §2

hMPV103 = target: T4, hMPV103 (hMPV B, UniProt Q6WB98 19-102); assay: BLI, 53C stress
T4 construct: E146C-T160C
Procedure: as §1, §2

hMPV104 = target: T5, hMPV104 (hMPV B, UniProt Q6WB98 19-102); assay: BLI, 53C stress
T5 construct: A459P
Procedure: as §1, §2

hMPV105 = target: T6, hMPV105 (hMPV B, UniProt Q6WB98 19-102); assay: BLI, 53C stress
T6 construct: G239A
Procedure: as §1, §2

hMPV106 = target: T7, hMPV106 (hMPV B, UniProt Q6WB98 19-102); assay: BLI, 53C stress
T7 construct: T49I
Procedure: as §1, §2

hMPV107 = target: T8, hMPV107 (hMPV B, UniProt Q6WB98 19-102); assay: BLI, 53C stress
T8 construct: S149T
Procedure: as §1, §2

hMPV108 = target: T9, hMPV108 (hMPV B, UniProt Q6WB98 19-102); assay: BLI, 53C stress
T9 construct: T365I
Procedure: as §1, §2

hMPV048 = target: T10, hMPV048 (hMPV A, UniProt Q6WB98 19-102); assay: BLI, 50C stress, vs WT Control
T10 construct: L141C-A161C
Procedure: (§3) The OCTET HTX (Sartorius, Gottingen, Germany) instrument was used to evaluate the expression and conformational integrity for each mutant. All measurements were conducted at 30° C. temperature in 96-well black plates (Corning, Corning, NY) with a final volume of 240 μL per well at a constant agitation rate of 1000 RPM.
(§4) Conformation integrity of hMPV A F protein mutants were evaluated by thermal stress experiments. Crude cell culture supernatants were normalized based on the results of the titer quantitation and then incubated for 1 hour at room temperature and two higher temperatures. […] Anti-Human IgG Fc Capture (AHC) biosensors were first equilibrated in PB before being dipped into more PB to establish the initial baseline. […] The mAb-bound biosensors were then dipped into the thermal stressed cell culture supernatants for 5 minutes. The kinetics analysis was done by OCTET data analysis software (version 12.0, Sartorius) based on curve fitting of the entire associate step.

hMPV049 = target: T11, hMPV049 (hMPV A, UniProt Q6WB98 19-102); assay: BLI, 50C stress, vs WT Control
T11 construct: E146C-T160C
Procedure: as §3, §4

hMPV050 = target: T12, hMPV050 (hMPV A, UniProt Q6WB98 19-102); assay: BLI, 50C stress, vs WT Control
T12 construct: V148C-L158C
Procedure: as §3, §4

hMPV052 = target: T13, hMPV052 (hMPV A, UniProt Q6WB98 19-102); assay: BLI, 50C stress, vs WT Control
T13 construct: L66P
Procedure: as §3, §4

hMPV053 = target: T14, hMPV053 (hMPV A, UniProt Q6WB98 19-102); assay: BLI, 50C stress, vs WT Control
T14 construct: L110P
Procedure: as §3, §4

hMPV054 = target: T15, hMPV054 (hMPV A, UniProt Q6WB98 19-102); assay: BLI, 50C stress, vs WT Control
T15 construct: S132P
Procedure: as §3, §4

hMPV055 = target: T16, hMPV055 (hMPV A, UniProt Q6WB98 19-102); assay: BLI, 50C stress, vs WT Control
T16 construct: N145P
Procedure: as §3, §4

hMPV058 = target: T17, hMPV058 (hMPV A, UniProt Q6WB98 19-102); assay: BLI, 50C stress, vs WT Control
T17 construct: L187P
Procedure: as §3, §4

hMPV059 = target: T18, hMPV059 (hMPV A, UniProt Q6WB98 19-102); assay: BLI, 50C stress, vs WT Control
T18 construct: V449P
Procedure: as §3, §4

hMPV060 = target: T19, hMPV060 (hMPV A, UniProt Q6WB98 19-102); assay: BLI, 50C stress, vs WT Control
T19 construct: A459P
Procedure: as §3, §4

hMPV061 = target: T20, hMPV061 (hMPV A, UniProt Q6WB98 19-102); assay: BLI, 50C stress, vs WT Control
T20 construct: G106A
Procedure: as §3, §4

hMPV062 = target: T21, hMPV062 (hMPV A, UniProt Q6WB98 19-102); assay: BLI, 50C stress, vs WT Control
T21 construct: G121A
Procedure: as §3, §4

hMPV063 = target: T22, hMPV063 (hMPV A, UniProt Q6WB98 19-102); assay: BLI, 50C stress, vs WT Control
T22 construct: G239A
Procedure: as §3, §4

hMPV066 = target: T23, hMPV066 (hMPV A, UniProt Q6WB98 19-102); assay: BLI, 50C stress, vs WT Control
T23 construct: T49I
Procedure: as §3, §4

hMPV067 = target: T24, hMPV067 (hMPV A, UniProt Q6WB98 19-102); assay: BLI, 50C stress, vs WT Control
T24 construct: S149T
Procedure: as §3, §4

hMPV068 = target: T25, hMPV068 (hMPV A, UniProt Q6WB98 19-102); assay: BLI, 50C stress, vs WT Control
T25 construct: A159V
Procedure: as §3, §4

hMPV069 = target: T26, hMPV069 (hMPV A, UniProt Q6WB98 19-102); assay: BLI, 50C stress, vs WT Control
T26 construct: S291I
Procedure: as §3, §4

hMPV071 = target: T27, hMPV071 (hMPV A, UniProt Q6WB98 19-102); assay: BLI, 50C stress, vs WT Control
T27 construct: T365I
Procedure: as §3, §4

hMPV075 = target: T28, hMPV075 (hMPV A, UniProt Q6WB98 19-102); assay: BLI, 50C stress, vs WT Control
T28 construct: L473F
Procedure: as §3, §4

hMPV077 = target: T29, hMPV077 (hMPV A, UniProt Q6WB98 19-102); assay: BLI, 50C stress, vs WT Control
T29 construct: Q476C, S477C
Procedure: as §3, §4

hMPV A F WT Control = hMPV A F WT Control (hMPV A, UniProt Q6WB98 19-102); assay: BLI, 50C stress, vs WT Control
Procedure: as §3, §4

hMPV043 = target: T30, hMPV043 (hMPV A, UniProt Q6WB98 19-102); assay: BLI, 50C stress, vs WT Control
T30 construct: G366C-D454C
Procedure: as §3, §4

hMPV044 = target: T31, hMPV044 (hMPV A, UniProt Q6WB98 19-102); assay: BLI, 50C stress, vs WT Control
T31 construct: T411C-Q434C
Procedure: as §3, §4

hMPV045 = target: T32, hMPV045 (hMPV A, UniProt Q6WB98 19-102); assay: BLI, 50C stress, vs WT Control
T32 construct: I137C-A159C
Procedure: as §3, §4

hMPV046 = target: T33, hMPV046 (hMPV A, UniProt Q6WB98 19-102); assay: BLI, 50C stress, vs WT Control
T33 construct: A140C-S149C
Procedure: as §3, §4

B1: hMPV-2 mAb (antibody, V domains shown)
VH: QVQLQQSGAEVKKPGASVKVSCKASGYTFTSYGISWVRQAPGQGLEWMGWISGYNGNTNYAQTFQGTFTMTTDTSTSTAYMELRRLRSGDTAVYYCARDRYYASGSYNGMDVWGQGTTVTVSS
VL: QSALTQPPSASGAPGQRVTVSCSGSSSNVGSSSVYWYQQLPGTAPKLLIYRNNQRPSGVPDRFSGSKSGTSASLAISGLRSEDEADYYCAAWDDSLSGWVFGGGTKLTVLG
notes: human IgG1
hMPV100
  Response Shift: 0.854 nm
hMPV101
  Response Shift: 0.716 nm
hMPV102
  Response Shift: 0.572 nm
hMPV103
  Response Shift: 0.588 nm
hMPV104
  Response Shift: 0.336 nm
hMPV105
  Response Shift: 0.785 nm
hMPV106
  Response Shift: 0.828 nm
hMPV107
  Response Shift: 0.846 nm
hMPV108
  Response Shift: 0.802 nm
hMPV048
  Fold change vs WT: 1.5 fold
hMPV049
  Fold change vs WT: 1.9 fold
hMPV050
  Fold change vs WT: 0.5 fold
hMPV052
  Fold change vs WT: 2.2 fold
hMPV053
  Fold change vs WT: 2 fold
hMPV054
  Fold change vs WT: 1.6 fold
hMPV055
  Fold change vs WT: 0.7 fold
hMPV058
  Fold change vs WT: 1.7 fold
hMPV059
  Fold change vs WT: 1.6 fold
hMPV060
  Fold change vs WT: 2.5 fold
hMPV061
  Fold change vs WT: 2 fold
hMPV062
  Fold change vs WT: 1.6 fold
hMPV063
  Fold change vs WT: 2.4 fold
hMPV066
  Fold change vs WT: 2.6 fold
hMPV067
  Fold change vs WT: 2.3 fold
hMPV068
  Fold change vs WT: 1.6 fold
hMPV069
  Fold change vs WT: 1.6 fold
hMPV071
  Fold change vs WT: 2.4 fold
hMPV075
  Fold change vs WT: 2.3 fold
hMPV077
  Fold change vs WT: 2.2 fold
hMPV A F WT Control
  Fold change vs WT: 1 fold
hMPV043
  Fold change vs WT: 2 fold
hMPV044
  Fold change vs WT: 2.6 fold
hMPV045
  Fold change vs WT: 0.4 fold
hMPV046
  Fold change vs WT: 1.7 fold
